± gives the standard deviation of the averaged measurements.
Test system: Saccharomyces cerevisiae
Test: protein stability index of tFT-peptide fusion (C-terminal peptide) (PSI (0-1 scale)); higher = more stable (slower turnover)
Details: temperature: 30 C
Description: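 MPS profiling in S. cerevisiae of the yeast C-terminome library: the last 12 aa of each annotated ORF are fused to the C-terminus of a sfGFP-mCherry timer, after a GGGS linker. Cells are FACS-sorted into 8 mCherry/sfGFP bins and deep-sequenced. PSI runs from 0 (unstable) to 1 (stable); wild type and das1Δ backgrounds, two technical replicates each.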

[1] = genetic background: das1 deletion

Sequence | protein stability index [1] | protein stability index (genetic background: wild type)
IHDFPKSHIVDF [IKI3 C-terminal 12 aa] | 0.7325 ± 0.0027 | 0.733 ± 0.025
IIRPLVLKNFII [YDR371C-A C-terminal 12 aa] | 0.5029 ± 0.0013 | 0.116 ± 0.0054
IIWEKRNPEQKI [ERG11 C-terminal 12 aa] | 0.702 ± 0.023 | 0.7138 ± 0.0069
IKARNMKIDRTQ [COG4 C-terminal 12 aa] | 0.681 ± 0.018 | 0.695 ± 0.041
IKGWFVNGQVPR [PEX17 C-terminal 12 aa] | 0.716 ± 0.0072 | 0.674 ± 0.029
IKLEDAKGTHIK [RAD59 C-terminal 12 aa] | 0.695 ± 0.013 | 0.6411 ± 0.0032
IKMIKELGNHRL [RMD6 C-terminal 12 aa] | 0.684 ± 0.0078 | 0.646 ± 0.026
IKSLFSLAKEAS [MSC7 C-terminal 12 aa] | 0.703 ± 0.01 | 0.5867 ± 0.0023
IKVDNIVHIRND [YFH7 C-terminal 12 aa] | 0.6928 ± 0.0038 | 0.723 ± 0.039
ILEAWEKVDDSL [SNX4 C-terminal 12 aa] | 0.734 ± 0.013 | 0.734 ± 0.016
ILQCFTDEILNC [NDJ1 C-terminal 12 aa] | 0.691 ± 0.0087 | 0.68 ± 0.022
ILRILANSNDDN [BXI1 C-terminal 12 aa] | 0.699 ± 0.036 | 0.6562 ± 0.0062
ILSWYFLETVAV [YMR254C C-terminal 12 aa] | 0.317 ± 0.024 | 0.34 ± 0.018
INEDNKAYSLDY [RIM4 C-terminal 12 aa] | 0.69877 ± 0.00035 | 0.722 ± 0.026
IPLTEFDLSDSK [YMR253C C-terminal 12 aa] | 0.701 ± 0.0095 | 0.73422 ± 0.00045
IQESRFNFYLIT [RKM5 C-terminal 12 aa] | 0.683 ± 0.023 | 0.6241 ± 0.0035
IRDEGLNNLDTA [YPL257W C-terminal 12 aa] | 0.6944 ± 0.006 | 0.704 ± 0.019
IRLFRSARRWVG [ADE6 C-terminal 12 aa] | 0.7017 ± 0.0011 | 0.66 ± 0.0083
IRSRGRLKEVYF [SLX5 C-terminal 12 aa] | 0.732 ± 0.026 | 0.68566 ± 0.00055
ISDNVPKEAIIM [PSA1 C-terminal 12 aa] | 0.686 ± 0.023 | 0.631 ± 0.034
ISGGTFGFRSEI [HBT1 C-terminal 12 aa] | 0.696 ± 0.02 | 0.7165 ± 0.0021

Sequence | protein stability index [1] | protein stability index (genetic background: wild type)
ISIVACALWLVF [DCW1 C-terminal 12 aa] | 0.288 ± 0.003 | 0.291 ± 0.0036
ISKVSNTRVCCT [YAL004W C-terminal 12 aa] | 0.6431 ± 0.0031 | 0.654 ± 0.017
ISSKSIPSVDDK [YIL071W-A C-terminal 12 aa] | 0.677 ± 0.025 | 0.706 ± 0.067
ISVSSGIENFAT [YJL202C C-terminal 12 aa] | 0.692 ± 0.042 | 0.654 ± 0.019
ITFIASLMTLNK [SAC6 C-terminal 12 aa] | 0.66916 ± 0.0005 | 0.679 ± 0.021
ITSQDILASTDY [YHL009W-B C-terminal 12 aa] | 0.688 ± 0.015 | 0.711 ± 0.027
ITSYNFLGVPFK [YLR406C-A C-terminal 12 aa] | 0.746 ± 0.018 | 0.724 ± 0.043
IVALILNTRGSE [VMA11 C-terminal 12 aa] | 0.683 ± 0.0096 | 0.668 ± 0.028
IVKAVKEVLSIE [PDB1 C-terminal 12 aa] | 0.683 ± 0.0044 | 0.667 ± 0.044
IVLPENIPLLYK [YJL195C C-terminal 12 aa] | 0.694 ± 0.037 | 0.672 ± 0.023
IVPLSELEKTLI [XKS1 C-terminal 12 aa] | 0.696 ± 0.016 | 0.687 ± 0.0097
IVPSQGKKVKFD [NOP13 C-terminal 12 aa] | 0.679 ± 0.0068 | 0.676 ± 0.011
IYKCEDERIDYF [KOG1 C-terminal 12 aa] | 0.6594 ± 0.00099 | 0.726 ± 0.015
IYLLSDYEKDNI [CMR2 C-terminal 12 aa] | 0.709 ± 0.044 | 0.684 ± 0.0073
KAELDRYKRENQ [SEM1 C-terminal 12 aa] | 0.7052 ± 0.0058 | 0.709 ± 0.049
KAFVIGAIALVA [YMR317W C-terminal 12 aa] | 0.331 ± 0.01 | 0.341 ± 0.0043
KALELILNILEH [SNU56 C-terminal 12 aa] | 0.683 ± 0.033 | 0.667 ± 0.012
KARLTEEQHRHE [CWC21 C-terminal 12 aa] | 0.705 ± 0.0052 | 0.697 ± 0.019
KAVEFTTTALSS [MKT1 C-terminal 12 aa] | 0.715 ± 0.0089 | 0.747 ± 0.11
KCQTKHTFTGLI [YGR269W C-terminal 12 aa] | 0.695 ± 0.0072 | 0.723 ± 0.021
KDEINYLNSKLK [SPA2 C-terminal 12 aa] | 0.692 ± 0.07 | 0.706 ± 0.083

Sequence | protein stability index [1] | protein stability index (genetic background: wild type)
KDVIVDHHSDLN [SAP4 C-terminal 12 aa] | 0.706 ± 0.048 | 0.701 ± 0.052
KEQEESEKDKEN [BFR1 C-terminal 12 aa] | 0.732 ± 0.015 | 0.69 ± 0.05
KFDEKTATLVDE [YDL144C C-terminal 12 aa] | 0.692 ± 0.027 | 0.675 ± 0.022
KFETPGEYKKRI [LCL3 C-terminal 12 aa] | 0.697 ± 0.029 | 0.712 ± 0.019
KFPLSVKKKIRI [YNR075C-A C-terminal 12 aa] | 0.6821 ± 0.0027 | 0.697 ± 0.066
KGKLITKVNNEE [YML131W C-terminal 12 aa] | 0.648 ± 0.029 | 0.628 ± 0.04
KGPSKTALLSKK [PKP1 C-terminal 12 aa] | 0.707 ± 0.021 | 0.711 ± 0.033
KGVIGTNPPITH [MPC3 C-terminal 12 aa] | 0.7045 ± 0.0018 | 0.719 ± 0.081
KGVVTLEEILKA [COQ11 C-terminal 12 aa] | 0.712 ± 0.012 | 0.712 ± 0.028
KHKNILPFNFTK [YEL074W C-terminal 12 aa] | 0.703 ± 0.037 | 0.741 ± 0.0086
KIGKGKLYFAIV [YDR220C C-terminal 12 aa] | 0.666 ± 0.011 | 0.491 ± 0.015
KIITLDLSNYAE [SMC1 C-terminal 12 aa] | 0.709 ± 0.057 | 0.672 ± 0.049
KIRPTFGDNQAS [HST3 C-terminal 12 aa] | 0.6923 ± 0.001 | 0.73 ± 0.043
KISLLSHAQCYK [YIR016W C-terminal 12 aa] | 0.668 ± 0.024 | 0.6506 ± 0.0051
KKGETFGYDKWW [OPT1 C-terminal 12 aa] | 0.725 ± 0.021 | 0.683 ± 0.032
KKGPKFKSRKKL [RRP12 C-terminal 12 aa] | 0.748 ± 0.037 | 0.678 ± 0.011
KKHRVGMPKEDK [DIC1 C-terminal 12 aa] | 0.67 ± 0.013 | 0.69 ± 0.031
KKIIKKKDFYHR [YOR011W-A C-terminal 12 aa] | 0.728 ± 0.015 | 0.706 ± 0.04
KKKDASQEESLI [VMA2 C-terminal 12 aa] | 0.6922 ± 0.0019 | 0.7066 ± 0.0041
KKKKNASTCTIL [RSR1 C-terminal 12 aa] | 0.7494 ± 0.0014 | 0.711 ± 0.03
KKKKQIKNFQFG [YMR290W-A C-terminal 12 aa] | 0.687 ± 0.0087 | 0.656 ± 0.05

Sequence | protein stability index [1] | protein stability index (genetic background: wild type)
KKLDGEVLCRVK [MRPS8 C-terminal 12 aa] | 0.659 ± 0.021 | 0.6437 ± 0.0055
KKLNRKIASIFN [ZEO1 C-terminal 12 aa] | 0.718 ± 0.011 | 0.6644 ± 0.0016
KKLRQPKEGETF [MMS2 C-terminal 12 aa] | 0.7046 ± 0.00082 | 0.6737 ± 0.00082
KKRKFGKVRIKN [NEJ1 C-terminal 12 aa] | 0.706 ± 0.047 | 0.698 ± 0.0074
KLAEHGAKKQKI [GCD10 C-terminal 12 aa] | 0.7217 ± 0.0024 | 0.659 ± 0.016
KLESSKNTSHEK [NFU1 C-terminal 12 aa] | 0.725 ± 0.0084 | 0.705 ± 0.0085
KLGLFRHIFSRK [LRE1 C-terminal 12 aa] | 0.691 ± 0.012 | 0.704 ± 0.01
KLLIRFILLVNS [YPR130C C-terminal 12 aa] | 0.172 ± 0.016 | 0.111 ± 0.0048
KLLLNELRSFCV [PCL10 C-terminal 12 aa] | 0.72 ± 0.009 | 0.694 ± 0.028
KLLQIHKSKQQD [TAH11 C-terminal 12 aa] | 0.69 ± 0.013 | 0.706 ± 0.012
KLRITSQENKTE [BCK1 C-terminal 12 aa] | 0.68 ± 0.022 | 0.766 ± 0.036
KLRREDEIIVYA [REC8 C-terminal 12 aa] | 0.6145 ± 0.0033 | 0.644 ± 0.0052
KLVWTLQSLCMR [YEL032C-A C-terminal 12 aa] | 0.688 ± 0.0084 | 0.681 ± 0.021
KMIESLKSKLKE [CIN5 C-terminal 12 aa] | 0.693 ± 0.02 | 0.686 ± 0.027
KMKQRKLTPGDS [CMC4 C-terminal 12 aa] | 0.691 ± 0.018 | 0.65 ± 0.0073
KNEEDSTYFSNV [PMR1 C-terminal 12 aa] | 0.6935 ± 0.0013 | 0.698 ± 0.027
KNKTKQNQAQSW [LTO1 C-terminal 12 aa] | 0.704 ± 0.012 | 0.679 ± 0.017
KNLWMRENEITI [HES1 C-terminal 12 aa] | 0.711 ± 0.059 | 0.71 ± 0.018
KNSDSTEKNATI [DAT1 C-terminal 12 aa] | 0.702 ± 0.026 | 0.736 ± 0.034

Reference: the supplement of paper PMC10724198
